Assay: yeast display, Sf9 membrane polyspecificity reagent, FACS + sequencing; frameworks hold sequencing errors
Procedure, shortened: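 Nanobodies came from a synthetic yeast display library in Saccharomyces cerevisiae BJ5465, induced with galactose for 36–48 hours and stained for 1 hour at 4 °C with 10% biotinylated, detergent-solubilized Sf9 membrane reagent. Cells were enriched on streptavidin microbeads and then FACS-sorted, with low and high (top ~1%) gates set on anti-HA fluorescence for expression and streptavidin fluorescence for reagent binding. Each polyreactivity label reflects the gate a clone came from. Genes were amplified by colony PCR, sequenced by MiSeq 2 × 250 and filtered by CDR length.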

Row | Sequence | polyreactivity (PSR sort gate)
1 | QVQLVESGGGLVQAGGSLRLSCASSGRIFFKYAMGWYRQARGKERELLATITWRGSSTYYADSVKWRFTISRDNAKNTVYFQMNSLKPEDTAVYYCAAVAAWWYHQGVRYDYWGQGSQVTVSS | high polyreactivity
2 | QVQLVESVGGLVQAGGSLRLSSAASGRTFRYYTMVWYTQAPGKEREFVAAISSTGGTYYADSVKGRFTISRDNAKNTVYLQMNSLKPEDTAVYYCAATFIQVVVNVQMYDYDYWGQGTQVTVSS | low polyreactivity
3 | QDHLVESGGGLVQAGGSLRLSCAASGFLFSQNVMGWYRQAPGKERELVAAISSGSRTYYADSVKGRFTISRDNAKNTVYLQMISLKPEDTAVYYCATDARVGGYVSEGDYWGLGTQVTVSS | low polyreactivity
4 | QVQLVESGGGLVQAGGSLRLSCAASGFTCASNDMGWSRQAPGKERELVAAITKGGGRTYYADSVKGRFTISRDNAKNTVYLQMNSLKPEDTAVYYCAARQLIKYDYWGPGTQVTVSS | low polyreactivity
5 | QVQLVESGGGLVQAGGSLRLSCAASGSTFDAYAMGWCRQAPGTERELVAAITNAGSTNYADSVKGRFTISRDNAKNTVYLQMNSLKPEDTAVYYCATDWYHRYLDGRYDYWVQGTQVTVSS | low polyreactivity
6 | QVQLVEYGGGLVQAGGSLRLSCAASGIIFKVYAMGWYRQAPGKEMELVAAISWSGGTTYYADSVKWRFTISRDNAKNTVYLQMNSLKPEDTAVYYCNAVVRVRFRKNDYWGQGTQVTVSS | high polyreactivity
7 | QVQLVESGGGLVQAGGSLRLSCAASGSTFIDNTMGWYRQAPGKERELVASIRRSGGSTYYADSVKGRFTISRDNAKNTVYLQMNSLKPEDTAVYYCDVATRYHTTFWYYYWGQGTQVTVSS | high polyreactivity
8 | QVQLVESGGGLVQAGGSLRLSCAASGSTFWFNDMGWYRQAPGKEREFVAAISSIGGSTYYADSVKGRFTISRDNAKNTVYLQMNSLKPEDTAVYNCAVEVVRVYRYDYWGQGTQVTVSS | low polyreactivity
9 | QVHLVESGGGLVQAGGSLRLSCAASGITFHGYAMGWYRQAPGKERELVAAISDSGSSTYYADSVKGRFTISRDNAKNTVYLQMNSLKPEDTAVYYCAAVSGFYDQYDYWGQGTQVTVSS | low polyreactivity
10 | QVQLVESGGGLVQAGGSLRLSCAASGITFPYYAMGWYREAPGKERELVAAITQSGGSTYYADSVKGRFTISRDNAKNTVYLQMNSLKPEDTAVYYCAADSSRSVNYYRYDYWGQGTQVTLSS | low polyreactivity
11 | QVQLVETGGGLVQAGGSLRLSCAASGITFWYYAMGWYIQAPGKERELVAAITSGGSTYYADSVKGRFTISRDNAKNTVYLQMNSLKPEDTAVYYCAKDSVWGAKNLTSYKYYYWGQGTQVTVSS | low polyreactivity
12 | QVQLVESGGGLVQAGGSLRLSCAASGSTFGDNAMGWYRQAPGKERELVATITWSDDSTYYADSVKGRFTISRDNAKNTVYLQMNSLKPEDTAFYYCAADVDSYLLIGAVEYDYWGHGTQVTVSS | low polyreactivity
13 | QVQLVESGGGLVQAGGSLRLSCAASGSIFSYNAMGWYRQAHGKERELVAAIRASGGSTYYADSVKGRFTISRDNAKNTVYLQMNSLKPEDTAVYYCAARGYGWGQGTQVTVSS | high polyreactivity
14 | QVQLVESGGGLVQAGGSLRLICAASGLTFDVNAMGWYRQAPGKERELVAAITADDGSTYYADSVKGRFTISRDNAKNTVYLQMNSLKPEDTAVYYCNADTRTQGPYSAPYYREMNYWGQGTQVTVSS | low polyreactivity
15 | QVQLVESGGGLVQAGGSLRLSCAASGSIFRNYAMGWYRQAPGKERELVAAITRGGGSTYYADSVKGRFTISRDNAKNTVYLQMNSLKPEDTAVYYGAAGSTRERNPRYGYWGQGTQVTVSS | high polyreactivity
16 | QVQLVESGGGLVQAGGSLRLSCASSGSIFKAYAMGLSRQAPGKERELVAAIRGSGGRTYYADSVKGRFTISRDYAKNTVYLQMNSLKPEDTAVYYCNTVRSTPNGLDYDYWGQGTQVTVSS | low polyreactivity

Row | Sequence | polyreactivity (PSR sort gate)
17 | QVQVVESGGGLVQAVGSLRLSCAASGSTLSDNAMGWYRQAPGKERELFAAISESGGSTYYADSVKGRFTISRDNAKNTVYLQMNSQKPEDTAVSYCNAVYLSGPFHVSHDYWGQGTQVTVSA | low polyreactivity
18 | QVQLVESGGGLVQAGGSLRLSCAASGYIFDVNAMGWSRPAPGKESELVASISRSGASTYYADSVKGRFTISRDNAKNTVYLQMNSLQPEDTAVYYCNAVSRYCEYDSWGQGTQVTVSS | high polyreactivity
19 | QVQLVESGGGLFQAGGSLRLSCAATGRTFDPYAMGWYRQAPGKERELVAVISISDGSTYYADSVKGRFTISRDNAKNTVYLQMHSLKPEDTAVYYCAAYVFYDYWTLEYWGQGTQVTVSS | high polyreactivity
20 | QVQLVESGGGLVQAGGSLRLSSAHSAIIFCLNSMGWYRQEPGKERELVAAITITDGSTYYADSVKGRFTISRDNAKNTVYLQMNSLKPEDTAVYYCNADAIVSPYRLWTVTFYYWGQGTQVTVSS | low polyreactivity
21 | QVQLVESGGGLVQAGGSLRLSCAASGLTFYYYAMGWYRQAPGKERELVAAISIGGSTDYADSAKGRFTISRDNAKNTVYLQMNRLKPEDTAVYYCNVDDNSEYDYWGQGTQVTVSS | low polyreactivity
22 | QVQLVESGGGLVQAGGSLRLSCAASGLTFYYYVMGWYRQAPGKERELVAAISYSGGRTYYADSVKGRFTISRDNAKNTVYFQMNSLKPEDTEVYYCAAQSRYGGKFYYWGQGTQVTVSS | high polyreactivity
23 | QVQLVESGGGLVQAGGSLRLSCAASGRTFKPYVMGWYRQAPGKERELVAAISSRGDITYYADSVKCRFTISRHNAKNTVYLHMNSLKPEDTAVYYCNAGPAVRSAYSTPYYDYWGQGTQVTVSS | low polyreactivity
24 | QVQLVESGGGLVQAGGSLRLSCAASGFTFGSNAMGWYRQAPGKERELVAAISWSGGRTYYADSVKGRFTISRDNAKNTVYLQMNSLKPEDTAVYYCNKQYVKPWYRGYYYWGQGTQVNVSS | high polyreactivity
25 | QVQLVESGGGLVQAGGSLRLSCAASGIIFLGYVMGWYRQAPGKERELVAAISSSGGRTYYADSVKGRFTISRDNAKNTVYLQMNSLKPEDTAVYYCATRTLQPGYTYPRYYWGQGTQVTVSS | high polyreactivity
26 | QVQHVESGGGLVQAGGSLRLSCAASGRIFPYKAMGWYRQAPGKERELVAAISKSGVRTYYADSVKGRFTISRDNAKNTVYLQMNSLKPEDTAVYYCARGGYPGSAEYDYWGQGTQVTVSS | high polyreactivity
27 | QVQLVESGRGLVQAGGSLRLSCAASGRIFRYYTMGCYRQAPGKERELVASITYRGTSTYYADSVKGRFTISRDNAKNTVYLQMTSLKPEDTAVYYCNKDLFFRSISSKYDYWGQGTQVTVSS | high polyreactivity
28 | QVQLVESGGGLVQAGGSLRLSCDASGRIFRYNAMGWYRQAPGKEREFVAAITWRGGSTYYADSVKGRFTISRDNAKYTVYLQMNSLKPEDTAVYYCATRSPFGAAYEYGYWGQGTQVTVSS | high polyreactivity
29 | QVQLVESGGGLVQAGGSLRLSCASSGSIFNYNSMGGYRQAPGKERELVAGITTSGGSTYYADSVKGRFTISRDNAKNTVYLQMNSLKPEDTAVYYCAGYDYISSTYFLDDFWGQGSQVTVSS | low polyreactivity
30 | QVQLVESGGGLVQAGGSLRVSCAASGSTFSYNAMGWYRQAPGKERELVASINSRGGTTYYADTVKVRFTISRDNAKNTVYLQMKSLKPEDTAVYYCATDVYRLGEYDYWGQGTQVTVSS | low polyreactivity
31 | QVQLVESGGGLVQAGGSLRLSCAASGITFDHYAMGWYRQAPGKEREFVAAIDDIGGDTYYADSVKGRFTISRDNAKNTVYLQMNSLKPEDTAVYYCAADYGYYSRFYYWGQGTQVTVSS | low polyreactivity
32 | QVQLVESGGALVQAGGSLRLSCAASGSTFYTYVMGWYRQAPGKQREVVADITWRGGSTYYADSENGRFTISRDNAKNTVYLLMNSLKPEDTPVYYCAALSGLLWYGRMYYWGQGTQVTVSS | high polyreactivity

Reference: the nanobody polyreactivity screen of Harvey et al. (2022)
